Results on two molecules are retold here after patent US20240174760A1 (ZHEJIANG NANOMAB TECHNOLOGY CENTER, published 2024).

Where two headings read alike, the source gives them in different places.

Assay [1] has as its target human BCMA his tag protein (Acrobiosystems, BCA-H522y) (human) (UniProt Q02223). The assay is described as follows: comp. ELISA, competitor biotin-BAFF (ligand signal), Ab 78 ug/mL. A general note: An ELISA detects its analyte on a solid surface through an enzyme-linked reagent.
The target is the same in assay [2]. The assay is described as follows: comp. ELISA, competitor biotin-APRIL (ligand signal), Ab 78 ug/mL.
For assay [3] the target is unchanged. The assay is described as follows: comp. ELISA, competitor biotin-BAFF (ligand signal), Ab 19.5 ug/mL.
The target is the same in assay [4]. Kind of assay: comp. ELISA, competitor biotin-APRIL (ligand signal), Ab 19.5 ug/mL.
The target is the same in assay [5]. Kind of assay: comp. ELISA, competitor biotin-BAFF (ligand signal), Ab 1.218 ug/mL.
The target is the same in assay [6]. Kind of assay: comp. ELISA, competitor biotin-BAFF (ligand signal), Ab 4.875 ug/mL.
The target is the same in assay [7]. The assay is described as follows: comp. ELISA, competitor biotin-APRIL (ligand signal), Ab 1.218 ug/mL.
Assay [8] has the same target. The assay is described as follows: comp. ELISA, competitor biotin-APRIL (ligand signal), Ab 4.875 ug/mL.
For assay [9], the target named is T1, human BCMA his tag protein (Acrobiosystems, BCA-H522y) (human, UniProt Q02223 1-54).
T1 construct: Bought protein; also called BCMA/TNFR-His; human recombinant BCMA his tag; not shown: his tag
T1 sequence (looked up): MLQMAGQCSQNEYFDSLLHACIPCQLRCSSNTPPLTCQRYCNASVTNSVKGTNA
The assay is described as follows: comp. ELISA, competitor biotin-BAFF (ligand signal), Ab 78 ug/mL. On the procedure:
(§1) Plates (Corning) were coated with 2 μg/mL human BCMA his tag protein (Acrobiosystems, BCA-H522y) overnight at 4° C. After blocking and washing, 50 μL diluted antibodies (78 μg/mL, 19.5 μg/mL, 4.875 μg/mL, 1.218 μg/mL) and 50 μL biotin-labeled 1 μg/mL APRIL (Acrobiosystems, APL-H82F5) or 1.25 μg/mL BAFF (Acrobiosystems, BAF-H82F3) ligand were added to each well, and incubated at 37° C. for 1 hour. After washing 3 times, 100 μL HRP-labeled streptavidin (Biolegend, 405210) diluted 1:2000 was added to each well, and incubated at 37° C. for 30 minutes. After washing, 100 μL TMB substrate (Abeam, ab171524) was added to each well and developed for 5 minutes and the reaction was stopped by 3M HCl. The absorbance value at […] was read using a microplate reader (Tecan, SPARK).

Assay [10] deals with T1, human BCMA his tag protein …. Kind of assay: comp. ELISA, competitor biotin-APRIL (ligand signal), Ab 78 ug/mL. On the procedure:
as §1

For assay [11] the target is unchanged. Kind of assay: comp. ELISA, competitor biotin-BAFF (ligand signal), Ab 19.5 ug/mL. On the procedure:
as §1

Assay [12] concerns the target T2, human BCMA full-length protein on cells (human, UniProt Q02223 1-184).
T2 construct: whole, on cells; also called CHO-K1/BCMA; BCMA on RPMI8226, Jeko-1, Daudi cells
T2 sequence (looked up): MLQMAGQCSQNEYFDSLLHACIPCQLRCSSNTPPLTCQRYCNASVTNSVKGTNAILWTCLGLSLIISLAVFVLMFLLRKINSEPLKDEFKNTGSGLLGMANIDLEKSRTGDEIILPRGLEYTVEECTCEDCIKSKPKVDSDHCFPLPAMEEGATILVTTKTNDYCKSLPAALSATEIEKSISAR
Kind of assay: flow cytometry on RPMI8226 cells, anti-human IgG PE [A&B) A]. On the procedure:
The EC50 of the antibody was calculated by fitting the curve.
In general terms: In flow cytometry, cells or beads pass a laser one at a time.

Assay [13] concerns the target T1, human BCMA his tag protein …. The assay is described as follows: comp. ELISA, competitor biotin-APRIL (ligand signal), Ab 19.5 ug/mL. On the procedure:
as §1

For assay [14] the target is unchanged. The assay is described as follows: comp. ELISA, competitor biotin-BAFF (ligand signal), Ab 1.218 ug/mL. On the procedure:
as §1

For assay [15] the target is unchanged. The assay is described as follows: comp. ELISA, competitor biotin-BAFF (ligand signal), Ab 4.875 ug/mL. On the procedure: as §1
Assay [16] shares this target. The assay is described as follows: comp. ELISA, competitor biotin-APRIL (ligand signal), Ab 1.218 ug/mL. On the procedure:
as §1

Assay [17] has the same target. The assay is described as follows: comp. ELISA, competitor biotin-APRIL (ligand signal), Ab 4.875 ug/mL. On the procedure: as §1
The target in assay [18] is T2, human BCMA full-length protein on cells. Kind of assay: flow cytometry competition on CHO-K1/BCMA cells; antibody titrated against biotin-APRIL, PE streptavidin readout. On the procedure:
(§2) In a 96-well non-adsorption deep-well plate, the purified antibody and the control antibody were diluted to 1000 nM with DPBS, and then serially diluted to 8 concentration with 3-fold dilution. Biotin-APRIL was diluted to 4 μg/mL with DPBS. 50 μL the antibody diluted in the previous step or DPBS (Blank, Blank-PE tube), respectively, was added to the wells of a non-adsorption 96-well plate having 5×10⁵ CHO-K1/BCMA cells that overexpressed human BCMA, and then the 50 μL diluted APRIL in the previous step was added and mixed, incubated at 4° C. for 40 min. After washing once with pre-cooled DPBS, 150 μL PE Streptavidin (Biolegend, 405210) diluted with DPBS at 1:500 was added to each well, the cells were resuspended, and incubated at 4° C. for 30 min. After 30 minutes, centrifuged at 220 g for 5 minutes at 4° C., the supernatant was discarded, 200 μL pre-cooled DPBS washing solution was added to each well, the cells were resuspended by gently pipetting with a multichannel pipette, centrifuged at 220 g for 5 minutes, the supernatant was discarded, and the washing step was repeated one time. After 2 times of washing, the cells were resuspended in DPBS and detected by a flow analyzer (Beckman, Cytoflex). […]

The target is the same in assay [19]. The description is as above. On the procedure: as §2
The source holds these as a separate data set.

In the case of Isotype-2 (antibody), the OD450 in assay [1] turned out to be 3.24 OD450; in assay [2], 3.04 OD450; in assay [3] it was 3.28 OD450; in assay [4], 2.99 OD450; in assay [5] it was 3.38 OD450; in [6], 3.29 OD450. Also, the OD450 turned out to be 2.89 OD450 in [7] and 3.07 OD450 in [8].

B1: BMK1 (scFv)
scFv: DIVLTQSPASLAVSLGKRATINCRASESVSVIGAHLIHWYQQKPGQPPKLLIYLASNLETGVPARFSGSGSGTDFTLTISSLQAEDAAIYYCLQSRIFPRTFGGGTKLEIKGSTSGSGKPGSGEGSTKGQVQLVQSGSELKKPGASVKVSCKASGYTFTDYSINWVRQAPGQGLEWMGWINTETREPAYAYDFRGRFVFSLDTSVSTAYLQISSLKAEDTAVYYCARDYSYAMDYWGQGTLVTVSS
notes: also called positive control antibody; BMK control antibody
Consider B1, for which the OD450 in assay [9] was found to be 0.03 OD450; in assay [10], 0.05 OD450; in [11], 0.31 OD450; in [13], 0.31 OD450; in assay [14], 3.39 OD450; in assay [15] it was 3.32 OD450. Moreover, the values for the OD450 in assay [16] and in assay [17] were 3.1 OD450 and 2.9 OD450, respectively. For the same molecule, in assay [12], a half-maximal effect (EC50) was put at 5.7 nM. The IC50 (usually the concentration that gives 50% inhibition) in assay [18] is 89.6 nM; in assay [19], 81.8 nM.
